Patent publication US20160046705A1 (Amgen, published 2016)

T1: human sclerostin (human, UniProt Q9BQB4 24-213, biotin-labeled (site not stated))
T1 construct: also called biotin-labeled human sclerostin; SOST
T1 sequence: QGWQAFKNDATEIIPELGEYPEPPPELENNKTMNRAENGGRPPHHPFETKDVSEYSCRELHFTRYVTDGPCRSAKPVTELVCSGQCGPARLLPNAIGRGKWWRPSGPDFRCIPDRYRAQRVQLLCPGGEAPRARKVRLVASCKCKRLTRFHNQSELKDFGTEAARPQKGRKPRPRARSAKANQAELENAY


Target: T1, human sclerostin
Assay: competition alpha screen, increasing antibody against his-tagged LRP6 / biotin-labeled human sclerostin

| binding result | Binder |
| --- | --- |
| binds | 27H6 (antibody, V domains shown, also called sclerostin antibody 27H6) VH: EVQLVESGGGLVQPGGSLRLSCAASGFTFSSYSMNWVRQAPGKGLEWVSYISSSGSSIYYADSVKGRFTISRDNAKNSLYLQMNSLRDEDTAVYYCARERYYGDTPFDYWGQGTLVTVSS VL: DIVMTQTPLSLPVTPGEPASISCRSSQSLLNSVDGSTNLDWYLQKPGQSPQLLIYTLSYRASGVPDRFSGSGSGTDFTLKISRVEAEDVGVYYCMQRIEFPLTFGGGTKVEIK |
| binds | 20C3 (antibody, V domains shown, Parental anti-sclerostin antibody, described as directed against the loop 2 region of sclerostin) VH: QVQLQESGPGLVKPSETLSLTCTVSGGSISSYYWSWIRQPPGKGLEWIGYISDSGSTNYNPSLKSRIPISVDTSKNQFSLKLSSVTAADTAVYYCARWQLAHDAFDIWGQGTMVTVSS VL: QSALTQPASVSGSPGQSITISCTGTSSDVGGYNYVSWYQQHPGKAPKLMIYEVSYRPSGVSNRFSGSKSGSTASLTISGLQPEDEADYYCSSYAISSTLVFGGGTKMTVL |
